For four molecules, -log Kd (-log Kd (Kd in molar concentration)) results are on record in US8487076.

Test [1] deals with HLA-A24 molecule, product of the HLA-A*2402 gene, on C1R-A24 cells (human). The experiment in a line: flow cytometry; acid-stripped C1R-A24 cells reassociated with b2m and peptide dilutions, stained with labeled mAb 17A12. Conditions: remark: other sources report otherwise. For orientation: A flow cytometer gives signals particle by particle.
Test [2] deals with HLA-A2 molecule, product of the HLA-A*0201 gene, on JY cells (human). In words: flow cytometry; acid-stripped JY cells reassociated with b2m and peptide dilutions, stained with labeled mAb BB7.2. Conditions: remark: other sources report otherwise.

Take FLKDHRISTF [SEQ ID NO 44 (…), HLA-A24-binding 10 amino acid peptide of survivin]: in test [1], the -log Kd (-log Kd (Kd in molar concentration)) came to 7.01.

In the case of TLPPAWQPF [SEQ ID NO 1 (…), HLA-A24-binding 9 amino acid peptide of survivin], in test [1], the -log Kd (-log Kd (Kd in molar concentration)) came to 8.26. For the molecule FLKDHRISTF [SEQ ID NO 61 (…), HLA-A2-binding 10 amino acid peptide of survivin], in test [2], the -log Kd (-log Kd (Kd in molar concentration)) is 5.53.

In turn, TLPPAWQPF [SEQ ID NO 23 (…), HLA-A2-binding 9 amino acid peptide of survivin] returned a -log Kd (-log Kd (Kd in molar concentration)) in test [2] of 5.36.
